{"source": "paper PMC9760430", "about": "“A stapled chromogranin A-derived peptide homes in on tumors that express αvβ6 or αvβ8 integrins” (International Journal of Biological Sciences, 2023)", "binders": {"B1": {"name": "2a-NOTA conjugate (peptide)", "peptide": "C(maleimide‑NOTA)FETLRGEERILSILRHQNLLKELQD-NH2"}, "B2": {"name": "2a-IRDye conjugate (peptide)", "peptide": "C(maleimide‑IRDye 800CW)FETLRGEERILSILRHQNLLKELQD-NH2"}}, "key": {"[1]": {"molecular_target": "recombinant human αvβ6 integrin (human) (UniProt P06756)", "experiment": "ELISA; competitive integrin binding assay: αvβ6-coated plates, isoDGR peptide labeled with peroxidase as probe for the integrin-binding site; Ki"}, "[2]": {"molecular_target": "recombinant murine αvβ8 integrin (murine) (UniProt P43406)", "sequence (P43406 whole entry, chain 1 of 2)": "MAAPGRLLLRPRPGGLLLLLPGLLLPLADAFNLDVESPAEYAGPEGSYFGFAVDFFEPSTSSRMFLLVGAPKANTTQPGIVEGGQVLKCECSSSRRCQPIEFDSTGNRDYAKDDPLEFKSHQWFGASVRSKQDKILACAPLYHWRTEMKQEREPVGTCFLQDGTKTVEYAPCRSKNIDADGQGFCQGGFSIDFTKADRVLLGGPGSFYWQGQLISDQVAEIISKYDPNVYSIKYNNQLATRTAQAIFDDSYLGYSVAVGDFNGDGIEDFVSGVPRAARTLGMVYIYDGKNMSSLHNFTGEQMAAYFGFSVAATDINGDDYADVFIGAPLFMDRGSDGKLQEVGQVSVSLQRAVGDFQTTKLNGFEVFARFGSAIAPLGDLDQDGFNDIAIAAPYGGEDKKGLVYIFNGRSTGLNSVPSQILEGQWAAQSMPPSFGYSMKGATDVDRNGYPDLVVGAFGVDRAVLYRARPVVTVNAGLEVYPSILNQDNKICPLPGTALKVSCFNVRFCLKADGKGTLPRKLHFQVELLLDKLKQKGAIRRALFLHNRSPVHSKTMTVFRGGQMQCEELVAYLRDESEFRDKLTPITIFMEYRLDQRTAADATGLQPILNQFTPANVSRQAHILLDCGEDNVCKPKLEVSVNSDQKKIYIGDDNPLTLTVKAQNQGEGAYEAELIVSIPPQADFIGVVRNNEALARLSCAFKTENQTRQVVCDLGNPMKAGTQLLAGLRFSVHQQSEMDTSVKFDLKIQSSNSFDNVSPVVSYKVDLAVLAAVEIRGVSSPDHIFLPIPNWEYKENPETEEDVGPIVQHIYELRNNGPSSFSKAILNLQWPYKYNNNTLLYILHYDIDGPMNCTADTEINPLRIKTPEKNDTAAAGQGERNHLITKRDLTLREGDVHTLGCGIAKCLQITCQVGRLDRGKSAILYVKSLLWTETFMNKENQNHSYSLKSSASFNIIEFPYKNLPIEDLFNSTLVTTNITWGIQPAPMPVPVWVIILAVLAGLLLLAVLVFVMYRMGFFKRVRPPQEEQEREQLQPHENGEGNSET", "sequence (Q0VBD0 whole entry, chain 2 of 2, further chain)": "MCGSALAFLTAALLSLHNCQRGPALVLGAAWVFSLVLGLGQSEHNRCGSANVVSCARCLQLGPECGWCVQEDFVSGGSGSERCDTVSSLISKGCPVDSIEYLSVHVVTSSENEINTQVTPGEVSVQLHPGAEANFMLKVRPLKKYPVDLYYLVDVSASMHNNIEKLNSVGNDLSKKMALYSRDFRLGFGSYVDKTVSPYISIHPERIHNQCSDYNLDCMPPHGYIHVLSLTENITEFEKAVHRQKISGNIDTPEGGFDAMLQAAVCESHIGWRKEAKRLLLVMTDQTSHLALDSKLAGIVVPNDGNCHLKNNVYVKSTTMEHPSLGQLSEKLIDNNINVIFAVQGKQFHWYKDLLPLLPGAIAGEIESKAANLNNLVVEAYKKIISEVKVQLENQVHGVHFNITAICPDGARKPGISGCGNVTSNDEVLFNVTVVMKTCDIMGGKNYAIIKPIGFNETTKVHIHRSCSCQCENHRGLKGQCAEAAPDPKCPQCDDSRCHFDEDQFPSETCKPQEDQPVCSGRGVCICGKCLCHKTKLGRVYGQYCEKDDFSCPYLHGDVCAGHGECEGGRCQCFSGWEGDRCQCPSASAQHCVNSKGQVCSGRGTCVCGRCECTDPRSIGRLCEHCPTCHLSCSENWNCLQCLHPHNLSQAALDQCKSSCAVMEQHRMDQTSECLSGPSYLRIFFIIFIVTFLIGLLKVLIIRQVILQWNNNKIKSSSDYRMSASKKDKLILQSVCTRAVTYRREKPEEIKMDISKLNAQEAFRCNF", "experiment": "direct integrin binding assay (near-infrared fluorescence scan of plates); microtiter plates coated with αvβ6 or αvβ8; peptide-IRDye conjugates incubated 1 h, washed, bound fluorescence read with Odyssey CLx; EC50"}, "[3]": {"molecular_target": "recombinant human αvβ6 integrin (human) (UniProt P06756)", "experiment": "direct integrin binding assay (near-infrared fluorescence scan of plates); microtiter plates coated with αvβ6 or αvβ8; peptide-IRDye conjugates incubated 1 h, washed, bound fluorescence read with Odyssey CLx; EC50"}, "[4]": {"molecular_target": "recombinant murine αvβ6 integrin (murine) (UniProt P43406)", "sequence (P43406 whole entry, chain 1 of 2)": "as the sequence (P43406 whole entry, chain 1 of 2) above", "sequence (Q9Z0T9 whole entry, chain 2 of 2, further chain)": "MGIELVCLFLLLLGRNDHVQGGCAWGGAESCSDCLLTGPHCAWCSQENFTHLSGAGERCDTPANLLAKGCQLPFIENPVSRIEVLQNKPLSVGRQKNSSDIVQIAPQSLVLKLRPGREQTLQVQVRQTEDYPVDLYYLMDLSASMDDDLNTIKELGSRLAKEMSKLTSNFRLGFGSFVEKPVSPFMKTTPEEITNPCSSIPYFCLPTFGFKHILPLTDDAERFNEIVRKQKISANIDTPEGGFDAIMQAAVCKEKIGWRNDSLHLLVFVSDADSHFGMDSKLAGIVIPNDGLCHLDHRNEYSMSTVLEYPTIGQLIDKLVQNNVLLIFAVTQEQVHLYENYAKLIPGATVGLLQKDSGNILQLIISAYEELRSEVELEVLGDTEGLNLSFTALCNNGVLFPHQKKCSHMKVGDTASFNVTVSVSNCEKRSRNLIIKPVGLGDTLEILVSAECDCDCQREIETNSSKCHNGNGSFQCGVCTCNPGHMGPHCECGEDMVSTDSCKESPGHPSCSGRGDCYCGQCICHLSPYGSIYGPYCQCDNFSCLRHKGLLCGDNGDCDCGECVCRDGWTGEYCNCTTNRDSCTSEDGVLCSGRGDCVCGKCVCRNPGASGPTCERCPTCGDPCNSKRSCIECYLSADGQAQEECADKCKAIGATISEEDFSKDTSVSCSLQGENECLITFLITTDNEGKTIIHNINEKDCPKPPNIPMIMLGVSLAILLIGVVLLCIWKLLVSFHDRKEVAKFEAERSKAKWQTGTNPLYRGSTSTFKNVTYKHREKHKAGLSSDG", "experiment": "direct integrin binding assay (near-infrared fluorescence scan of plates); microtiter plates coated with αvβ6 or αvβ8; peptide-IRDye conjugates incubated 1 h, washed, bound fluorescence read with Odyssey CLx; EC50"}, "[5]": {"molecular_target": "recombinant human αvβ8 integrin (human) (UniProt P06756)", "experiment": "direct integrin binding assay (near-infrared fluorescence scan of plates); microtiter plates coated with αvβ6 or αvβ8; peptide-IRDye conjugates incubated 1 h, washed, bound fluorescence read with Odyssey CLx; EC50"}}, "note": "Ends that are not written are not given here.", "data": [{"binder": "B1", "values": [{"measurement": "Ki", "setting": "[1]", "value": "> 1", "unit": "µM"}]}, {"binder": "B2", "values": [{"measurement": "EC50", "setting": "[2]", "value": "> 0.1", "unit": "µM"}, {"measurement": "EC50", "setting": "[3]", "value": "> 0.1", "unit": "µM"}, {"measurement": "EC50", "setting": "[4]", "value": "> 0.1", "unit": "µM"}, {"measurement": "EC50", "setting": "[5]", "value": "> 0.1", "unit": "µM"}]}]}
